Where only a bound is given, the exact number is not on record here.

The test system of one data set is MHC-I. More on the design: species or system mice; key: − = no visual staining; + = minimal staining; ++ = moderate staining; +++ = strong staining. As to conditions: mouse, in vivo.
For a further data set, the system named is MHC-II. More on the design: species or system mice; key: − = no visual staining; + = minimal staining; ++ = moderate staining; +++ = strong staining. Conditions: mouse, in vivo.
On the set-up of data set [1]: species or system mice. Conditions: mouse, in vivo.
In data set [2] the test system is VSV. More on the design: species or system mice; key: − = no visual staining; + = minimal staining; ++ = moderate staining; +++ = strong staining. As to conditions: mouse, in vivo.
For another data set, the system named is VSV protein. It is filed as cell-based, Vesicular stomatitis virus.
The test system of data set [3] is VSV. It is filed as in vivo, mice. As to conditions: mouse, in vivo.
Data set [4] deals with blood brain barrier. More on the design: species or system mice. Conditions: mouse, in vivo.
A further data set has as its system IL-12. More on the design: species or system mice; key: − = no visual staining; + = minimal staining; ++ = moderate staining; +++ = strong staining. As to conditions: mouse, in vivo.
Data set [5] has as its system VSV. Details: species or system mice. As to conditions: mouse, in vivo, ip.
Another data set relates to VSV mRNA (N gene). Type of data set: cell-based, Vesicular stomatitis virus.
The test system of data set [6] is blood brain barrier. As to conditions: mouse, in vivo.
A further data set concerns IFN-R. Details: species or system mice; key: − = no visual staining; + = minimal staining; ++ = moderate staining; +++ = strong staining. As to conditions: mouse, in vivo.
For MHC-I relative intensity of staining in this document: test concentration or dose not given here.

B1: IL-12: Murine rIL-12 provided by Genetics Institute (protein, UniProt P43431 23-215; P43432 23-335, looked up)
Interleukin-12 subunit alpha: RVIPVSGPARCLSQSRNLLKTTDDMVKTAREKLKHYSCTAEDIDHEDITRDQTSTLKTCLPLELHKNESCLATRETSSTTRGSCLPPQKTSLMMTLCLGSIYEDLKMYQTEFQAINAALQNHNHQQIILDKGMLVAIDELMQSLNHNGETLRQKPPVGEADPYRVKMKLCILLHAFSTRVVTINRVMGYLSSA
Interleukin-12 subunit beta: MWELEKDVYVVEVDWTPDAPGETVNLTCDTPEEDDITWTSDQRHGVIGSGKTLTITVKEFLDAGQYTCHKGGETLSHSHLLLHKKENGIWSTEILKNFKNKTFLKCEAPNYSGRFTCSWLVQRNMDLKFNIKSSSSSPDSRAVTCGMASLSAEKVTLDQRDYEKYSVSCQEDVTCPTAEETLPIELALEARQQNKYENYSTSFFIRDIIKPDPPKNLQMKPLKNSQVEVSWEYPDSWSTPHSYFSLKFFVRIQRKKEKMKETEEGCNQKGAFLVEKTSTEVQCKGGNVCVQAQDRYYNSSCSKWACVPCRVRS
B1: the “MHC-I relative intensity of staining” value with MHC-I is “++ and + and +++ and −”. Besides, in the data set with MHC-II, the “MHC-II relative intensity of staining” value is “++ and + and +++ and −”. Moreover, in [1], the “Time at which weight exceeded initial measurements” value was at most 12 days after infection, the “Time at which weight exceeded initial measures” value is on record as at most 12 days after infection and the “Weight loss recovery from VSV infection” value is given as “rapidly recover from the weight loss”. Besides, the “VSV relative intensity of staining” value in the data set with VSV [2] is “+++ and ++ and + and −”. Besides, in the data set on VSV protein, the “Difference in relative amounts of viral protein between treated and untreated samples” value is “approximately 80%”. Also, in the data set on VSV [3], the “Decrease of VSV titer in brain homogenates” value is on record as “about 100 fold”. The “Breakage of the BBB (Evans blue)” value with blood brain barrier [4] is “did not show breakage of the BBB”. Moreover, in the data set with IL-12, the “IL-12 relative intensity of staining” value was “+ and − and ++”. In the data set with VSV [5], the “Number of survivors versus control medium” value was “greater”; the “Survival and weight recovery from VSV infection” value is given as “not able to rescue”; the “Survival rate from VSV infection versus control mice” value is given as “twice the survival rate”. In addition, the “Difference in relative amounts of viral mRNA between treated and untreated samples” value with VSV mRNA (N gene) is “approximately 20%”. Further, the “Integrity of the BBB (TEM, intercellular junction gaps)” value with blood brain barrier [6] is “not enough to disrupt the integrity of the BBB”. In addition, the “IFN-R relative intensity of staining” value in the data set with IFN-R was “++ and − and +”.
